In patent US20160039904A1, “STABILIZED SINGLE HUMAN CD4 DOMAINS AND FUSION PROTEINS” (priority 2013, published 2016):

How the values were obtained:
Experiment in all cases: cell-based or functional assay
[1] = target: HIV-1 Env of isolate CH110 (HIV-1)
[2] = target: HIV-1 Env of isolate AE20 (HIV-1)
[3] = target: HIV-1 Env of isolate YN192.31 (HIV-1)
[4] = target: HIV-1 Env of isolate CNE66 (HIV-1)
[5] = target: HIV-1 Env of isolate CNE17 (HIV-1)
[6] = target: HIV-1 Env of isolate CNE64 (HIV-1)
[7] = target: HIV-1 Env of isolate CNE3 (HIV-1)
[8] = target: HIV-1 Env of isolate CNE16 (HIV-1)
[9] = target: HIV-1 Env of isolate CH91 (HIV-1)
[10] = target: HIV-1 Env of isolate CNE47 (HIV-1)
[11] = target: HIV-1 Env of isolate CNE15 (HIV-1)
[12] = target: HIV-1 Env of isolate CNE49 (HIV-1)
[13] = target: HIV-1 Env of isolate CNE59 (HIV-1)
[14] = target: HIV-1 Env of isolate CH70 (HIV-1)
[15] = target: HIV-1 Env of isolate CNE58 (HIV-1)
[16] = target: HIV-1 Env of isolate CNE68 (HIV-1)
[17] = target: HIV-1 Env of isolate CNE20 (HIV-1)
[18] = target: HIV-1 Env of isolate CNE6 (HIV-1)
[19] = target: HIV-1 Env of isolate CH114 (HIV-1)
[20] = target: HIV-1 Env of isolate CNE53 (HIV-1)
[21] = target: HIV-1 Env of isolate CNE11 (HIV-1)
[22] = target: HIV-1 Env of isolate CH119 (HIV-1)
[23] = target: HIV-1 Env of isolate CNE55 (HIV-1)
[24] = target: HIV-1 Env of isolate CNE107 (HIV-1)
[25] = target: HIV-1 Env of isolate CNE7 (HIV-1)
[26] = target: HIV-1 Env of isolate CNE14 (HIV-1)
[27] = target: HIV-1 Env of isolate CH117 (HIV-1)
[28] = target: HIV-1 Env of isolate CH120 (HIV-1)
[29] = target: HIV-1 Env of isolate CNE30 (HIV-1)
[30] = target: HIV-1 Env of isolate CNE1 (HIV-1)
[31] = target: HIV-1 Env of isolate GX2010.36 (HIV-1)
[32] = target: HIV-1 Env of isolate CNE65 (HIV-1)
[33] = target: HIV-1 Env of isolate AE03 (HIV-1)
[34] = target: HIV-1 Env of isolate CNE23 (HIV-1)
[35] = target: HIV-1 Env of isolate CNE5 (HIV-1)
[36] = target: HIV-1 Env of isolate CNE57 (HIV-1)
[37] = target: HIV-1 Env of isolate CH64 (HIV-1)
[38] = target: HIV-1 Env of isolate CNE40 (HIV-1)
[39] = target: HIV-1 Env of isolate CNE46 (HIV-1)
[40] = target: HIV-1 Env of isolate CNE9 (HIV-1)
[41] = target: HIV-1 Env of isolate CNE4 (HIV-1)
[42] = target: HIV-1 Env of isolate 57128.VRC18 (HIV-1)
[43] = target: HIV-1 Env of isolate 55815.EC3 (HIV-1)
[44] = target: HIV-1 Env of isolate KNH1088.EC5 (HIV-1)
[45] = target: HIV-1 Env of isolate GS-015.EC12 (HIV-1)
[46] = target: HIV-1 Env of isolate N1 1046.e3 PV (HIV-1)
[47] = target: HIV-1 Env of isolate CM240.EC1 (HIV-1)
[48] = target: HIV-1 Env of isolate CAM0015BBY.EC3 (HIV-1)
[49] = target: HIV-1 Env of isolate KNH1144.EC1 (HIV-1)
[50] = target: HIV-1 Env of isolate Bal.EC1 TC (HIV-1)
[51] = target: HIV-1 Env of isolate PBL286.VRC36aPV (HIV-1)
[52] = target: HIV-1 Env of isolate BZ167.ec9 (HIV-1)
[53] = target: HIV-1 Env of isolate A07412VRC12A (HIV-1)

C34 (peptide)
neutralization IC50 [1]: 0.78 nM
neutralization IC90 [1]: 6.3 nM
neutralization IC50 [2]: 7.4 nM
neutralization IC90 [2]: 69 nM
neutralization IC50 [3]: 27 nM
neutralization IC90 [3]: 225 nM
neutralization IC50 [4]: 2.1 nM
neutralization IC90 [4]: 11 nM
neutralization IC50 [5]: 3.2 nM
neutralization IC90 [5]: 82 nM
neutralization IC50 [6]: 5.1 nM
neutralization IC90 [6]: 21 nM
neutralization IC50 [7]: 7.1 nM
neutralization IC90 [7]: 71 nM
neutralization IC50 [8]: 11 nM
neutralization IC90 [8]: 51 nM
neutralization IC50 [9]: 2.3 nM
neutralization IC90 [9]: 12 nM
neutralization IC50 [10]: 1.9 nM
neutralization IC90 [10]: 14 nM
neutralization IC50 [11]: 3.8 nM
neutralization IC90 [11]: 22 nM
neutralization IC50 [12]: 2.3 nM
neutralization IC90 [12]: 12 nM
neutralization IC50 [13]: 3.4 nM
neutralization IC90 [13]: 28 nM
neutralization IC50 [14]: 7.6 nM
neutralization IC90 [14]: 84 nM
neutralization IC50 [15]: 2 nM
neutralization IC90 [15]: 13 nM
neutralization IC50 [16]: 2.2 nM
neutralization IC90 [16]: 12 nM
neutralization IC50 [17]: 3.3 nM
neutralization IC90 [17]: 14 nM
neutralization IC50 [18]: 1.6 nM
neutralization IC90 [18]: 15 nM
neutralization IC50 [19]: 5.4 nM
neutralization IC90 [19]: 25 nM
neutralization IC50 [20]: 2 nM
neutralization IC90 [20]: 23 nM
neutralization IC50 [21]: 4.6 nM
neutralization IC90 [21]: 42 nM
neutralization IC50 [22]: 3.3 nM
neutralization IC90 [22]: 20 nM
neutralization IC50 [23]: 7.9 nM
neutralization IC90 [23]: 103 nM
neutralization IC50 [24]: 2.8 nM
neutralization IC90 [24]: 32 nM
neutralization IC50 [25]: 6.4 nM
neutralization IC90 [25]: 22 nM
neutralization IC50 [26]: 3.9 nM
neutralization IC90 [26]: 17 nM
neutralization IC50 [27]: 0.6 nM
neutralization IC90 [27]: 3.2 nM
neutralization IC50 [28]: 4.6 nM
neutralization IC90 [28]: 39 nM
neutralization IC50 [29]: 14 nM
neutralization IC90 [29]: 110 nM
neutralization IC50 [30]: 0.73 nM
neutralization IC90 [30]: 6.8 nM
neutralization IC50 [31]: 15 nM
neutralization IC90 [31]: 165 nM
neutralization IC50 [32]: 3.1 nM
neutralization IC90 [32]: 16 nM
neutralization IC50 [33]: 24 nM
neutralization IC90 [33]: 85 nM
neutralization IC50 [34]: 2.1 nM
neutralization IC90 [34]: 18 nM
neutralization IC50 [35]: 5.9 nM
neutralization IC90 [35]: 63 nM
neutralization IC50 [36]: 2 nM
neutralization IC90 [36]: 14 nM
neutralization IC50 [37]: 1.2 nM
neutralization IC90 [37]: 6.7 nM
neutralization IC50 [38]: 0.77 nM
neutralization IC90 [38]: 7.8 nM
neutralization IC50 [39]: 6.4 nM
neutralization IC90 [39]: 115 nM
neutralization IC50 [40]: 0.87 nM
neutralization IC90 [40]: 5.8 nM
neutralization IC50 [41]: 6.3 nM
neutralization IC90 [41]: 23 nM

b12 (antibody)
IC90, neutralization in TZM-bl cell-based assay [42]: 30 nM
IC50, neutralization in TZM-bl cell-based assay [43]: > 167 nM
IC90, neutralization in TZM-bl cell-based assay [43]: > 167 nM
IC50, neutralization in TZM-bl cell-based assay [44]: 117 nM
IC90, neutralization in TZM-bl cell-based assay [44]: > 167 nM
IC50, neutralization in TZM-bl cell-based assay [45]: 0.085 nM
IC90, neutralization in TZM-bl cell-based assay [45]: 1.6 nM
IC50, neutralization in TZM-bl cell-based assay [46]: 138 nM
IC90, neutralization in TZM-bl cell-based assay [46]: > 167 nM
IC50, neutralization in TZM-bl cell-based assay [47]: 82 nM
IC90, neutralization in TZM-bl cell-based assay [47]: > 167 nM
IC50, neutralization in TZM-bl cell-based assay [48]: 81 nM
IC90, neutralization in TZM-bl cell-based assay [48]: > 167 nM
IC50, neutralization in TZM-bl cell-based assay [49]: > 167 nM
IC90, neutralization in TZM-bl cell-based assay [49]: > 167 nM
IC90, neutralization in TZM-bl cell-based assay [50]: 3.6 nM
IC50, neutralization in TZM-bl cell-based assay [51]: 4 nM
IC90, neutralization in TZM-bl cell-based assay [51]: 19 nM
IC90, neutralization in TZM-bl cell-based assay [52]: > 167 nM
IC50, neutralization in TZM-bl cell-based assay [53]: 12 nM
IC90, neutralization in TZM-bl cell-based assay [53]: > 167 nM
